Reference: US12618845B2, “Methods and compositions for protein sequencing” (Quantum-Si Incorporated, priority 2018, dated 2026)
Positions count from the first letter of the chain named. In names and notes the source's numbering stands.

B1: H. sapiens Fyn SH2 domain triple mutant superbinder: amino acid recognition protein, SEQ ID NO: 23 (protein, listed as Homo sapiens)
chain: MGAMDSIQAEEWYFGKLGRKDAERQLLSFGNPRGTFLIRESETVKGAYALSIRDWDDMKGDHVKHYLIRKLDNGGYYITTRAQFETLQQLVQHYSERAAGLSSRLVVPSHK
B2: Saccharomyces cerevisiae UBR1: amino acid recognition protein, SEQ ID NO: 18 (protein, listed as Saccharomyces cerevisiae)
chain: MGSVHKHTGRNCGRKFKIGEPLYRCHECGCDDTCVLCIHCFNPKDHVNHHVCTDICTEFTSGICDCGDEEAWNSPLHCKAEEQ
B3: Escherichia coli ClpS: amino acid recognition protein, SEQ ID NO: 13 (protein, listed as Escherichia coli)
chain: MGKTNDWLDFDQLAEEKVRDALKPPSMYKVILVNDDYTPMEFVIDVLQKFFSYDVERATQLMLAVHYQGKAICGVFTAEVAETKVAMVNKYARENEHPLLCTLEKA
B4: Escherichia coli ClpS M40A: amino acid recognition protein, SEQ ID NO: 14 (protein, listed as Escherichia coli)
chain: B3 chain with M40A
B5: Escherichia coli leucyl/phenylalanyl-tRNA-protein transferase: amino acid recognition protein, SEQ ID NO: 16 (protein, listed as Escherichia coli)
chain: MRLVQLSRHSIAFPSPEGALREPNGLLALGGDLSPARLLMAYQRGIFPWFSPGDPILWWSPDPRAVLWPESLHISRSMKRFHKRSPYRVTMNYAFGQVIEGCASDREEGTWITRGVVEAYHRLHELGHAHSIEVWREDELVGGMYGVAQGTLFCGESMFSRMENASKTALLVFCEEFIGHGGKLIDCQVLNDHTASLGACEIPRRDYLNYLNQMRLGRLPNNFWVPRCLFSPQELE
B6: Plasmodium falciparum ClpS: amino acid recognition protein, SEQ ID NO: 15 (protein, listed as Plasmodium falciparum)
chain: MFKDLKPFFLCIILLLLLIYKCTHSYNIKNKNCPLNFMNSCVRINNVNKNTNISFPKELQKRPSLVYSQKNFNLEKIKKLRNVIKEIKKDNIKEADEHEKKEREKETSAWKVILYNDDIHNFTYVTDVIVKVVGQISKAKAHTITVEAHSTGQALILSTWKSKAEKYCQELQQNGLTVSIIHESQLKDKQKK
B7: Synechococcus elongatus ClpS2: amino acid recognition protein, SEQ ID NO: 11 (protein, listed as Synechococcus elongatus)
chain: MSPQPDESVLSILGVPRPCVKKRSRNDAFVLTVLTCSLQAIAAPATAPGTTTTRVRQPYPHFRVIVLDDDVNTFQHVAECLLKYIPGMTGDRAWDLTNQVHYEGAATVWSGPQEQAELYHEQLRREGLTMAPLEAA
B8: Thermosynechococcus elongatus ClpS: amino acid recognition protein, SEQ ID NO: 12 (protein, listed as Thermosynechococcus elongatus)
chain: MPQERQQVTRKHYPNYKVIVLNDDFNTFQHVAACLMKYIPNMTSDRAWELTNQVHYEGQAIVWVGPQEQAELYHEQLLRAGLTMAPLEPE
B9: GID4: GID4 evaluated as a potential reagent for proline recognition; species not stated at the place (protein, UniProt Q8IVV7 1-300, looked up)
Glucose-induced degradation …: MCARGQVGRGTQLRTGRPCSQVPGSRWRPERLLRRQRAGGRPSRPHPARARPGLSLPATLLGSRAAAAVPLPLPPALAPGDPAMPVRTECPPPAGASAASAASLIPPPPINTQQPGVATSLLYSGSKFRGHQKSKGNSYDVEVVLQHVDTGNSYLCGYLKIKGLTEEYPTLTTFFEGEIISKKHPFLTRKWDADEDVDRKHWGKFLAFYQYAKSFNSDDFDYEELKNGDYVFMRWKEQFLVPDHTIKDISGASFAGFYYICFQKSAASIEGYYYHRSSEWYQSLNLTHVPEHSAPIYEFR
B10: Synechococcus elongatus ClpS1: amino acid recognition protein, SEQ ID NO: 10 (protein, listed as Synechococcus elongatus)
chain: MAVETIQKPETTTKRKIAPRYRVLLHNDDFNPMEYVVMVLMQTVPSLTQPQAVDIMMEAHTNGTGLVITCDIEPAEFYCEQLKSHGLSSSIEPDD
B11: Agrobacterium tumifaciens ClpS1: amino acid recognition protein, SEQ ID NO: 4 (protein, listed as Agrobacterium tumifaciens)
chain: MIAEPICMQGEGDGEDGGTNRGTSVITRVKPKTKRPNLYRVLLLNDDYTPMEFVIHILERFFQKDREAATRIMLHVHQHGVGECGVFTYEVAETKVSQVMDFARQHQHPLQCVMEKK
B12: Agrobacterium tumifaciens ClpS1 C7S: amino acid recognition protein, SEQ ID NO: 6 (protein, listed as Agrobacterium tumifaciens)
chain: B11 chain with C7S
B13: Agrobacterium tumifaciens ClpS1 C7S C84S C112S: amino acid recognition protein, SEQ ID NO: 7 (protein, listed as Agrobacterium tumifaciens)
chain: B11 chain with C7S, C84S, C112S

Columns and labels:
[1] = system: amino acid at a terminal position of a polypeptide; conditions: amino acid identity at a terminal position of a polypeptide; phospho-Y also at an internal position; cited from earlier work
[2] = target: fluorescently-labeled peptides with N-terminal phospho-tyrosine, tyrosine or phospho-serine (Homo sapiens, UniProt P06241, C239S/C240S/C246S/K204L/S186A/T181V); assay: Single-molecule recognition of post-translationally modified amino acids by immobilized SH2 domain variant
[3] = system: N-terminal amino acid of peptides; assay: Single-molecule terminal amino acid discrimination by labeled affinity reagent (dwell time analysis); type: binding; conditions: for Terminal amino acid recognition: single molecule traces, dwell time analysis
Method: An adaptor protein involved in proteolytic pathways was identified as a potential candidate for use as a labeled affinity reagent for detecting N-terminal aromatic residues. The adaptor protein, ClpS2 from an α-proteobacterium (A. tumefaciens), was expressed and labeled at an exposed cysteine residue. […] The exposed cysteine residue was labeled with a rhodamine dye (ATTO 532).
Peptides having different N-terminal aromatic residues were prepared to test whether the labeled ClpS2 was capable of N-terminal amino acid discrimination at the single molecule level.
FIG. 19C is a plot showing discriminant pulse durations (time duration of signal peaks) among the three N-terminal residues when reversibly bound by labeled ClpS2. FIG. 19D is a plot showing discriminant interpulse durations (time duration between signal pulses) among the three N-terminal residues. […] Mean pulse duration for the different N-terminal residues is visualized by histograms (A)-(B) and layered histogram (C).

[4] = system: immobilized peptide FYPLPWPDDDY with N-terminal phenylalanine; assay: Simultaneous single-molecule recognition with differentially labeled recognition molecules; type: binding; conditions: 500 nM each binder
Method: Single peptide molecules containing N-terminal phenylalanine ([…] (SEQ ID NO: 79)) were immobilized in sample wells of a chip. Buffer containing 500 nM each of at ClpS1 (Agrobacterium tumefaciens ClpS1; sequence provided in Table 1) and at ClpS2-V1 (Agrobacterium tumefaciens ClpS2 variant 1; sequence provided in Table 1) was added, where at ClpS1 and at ClpS2-V1 were labeled with Cy3 and Cy3B, respectively. Since the intensity of Cy3B is higher than Cy3, at ClpS2-V1 binding events were readily distinguishable from at ClpS1 binding events.
The pulse duration distributions were distinct for each binder (FIG. 24B) and corresponded to their kinetic profiles as observed in single-binder experiments. Mean pulse duration was 1.3 seconds for at ClpS1 and 1.0 seconds for at ClpS2-V1 (FIG. 24C). Pulse rate was also distinct: 8.1 pulses/min for at ClpS1 and 14.1 pulses/min for at Clp2-V1 (FIG. 24C). Thus, when more than one recognition molecule is included for dynamic recognition of immobilized peptides, the binding characteristics of each recognition molecule (including pulse duration, interpulse duration, and pulse rate) can simultaneously provide information about peptide sequence.

Row | Molecule | Binding Pref. [1] | further results
1 | B1 | phospho-Y | Peptide binding by the immobilized protein ([2]; peptide with N-terminal and penultimate unmodified tyrosines (YY)): not detected; Peptide binding by the immobilized protein ([2]; peptide with N-terminal phospho-serine): not detected; Peptide binding by the immobilized protein ([2]; peptide with N-terminal phospho-tyrosine): detected; Peptide binding by the immobilized protein ([2]; peptide with N-terminal unmodified tyrosine (Y)): not detected
2 | B2 | K, R, H | –
3 | B3 | F, W, Y, L | –
4 | B4 | F, W, Y, L | –
5 | B5 | K, R | –
6 | B6 | F, W, Y, L, | –
7 | B7 | F, W, Y, L, and V, I | Terminal amino acid recognition [3]: leucine recognition
8 | B8 | F, W, Y, L | Mean pulse duration ([3]; terminal leucine residue of polypeptides): 0.71 s
9 | B9 | – | Terminal amino acid recognition [3]: proline recognition
10 | B10 | F, W, Y | –
11 | B11 | F, W, Y, L | Terminal amino acid recognition [3]: differentiable recognition of phenylalanine, leucine, tryptophan, and tyrosine; Mean pulse duration [4]: 1.3 s; Pulse rate [4]: 8.1 pulses/min
12 | B12 | F, W, Y, L | –
13 | B13 | F, W, Y, L | –
